The values below come from patent US20260226095A1.

Assay [1] deals with human recombinant TNFα (human) (UniProt P01375). Nature of the assay: SPR, Biacore T200, standard kinetics, antigen immobilized on CM5 chip. For orientation: In SPR one partner is held on a chip, and binding of the other changes the refractive index at the surface.
Assay [2] has the same target. Nature of the assay: ELISA on human recombinant TNFα, anti-His tag and HRP anti-mouse IgG. (In general: ELISA stands for enzyme-linked immunosorbent assay.)

Sequence of human recombinant TNFα (human) (P01375 77-233 limits assumed): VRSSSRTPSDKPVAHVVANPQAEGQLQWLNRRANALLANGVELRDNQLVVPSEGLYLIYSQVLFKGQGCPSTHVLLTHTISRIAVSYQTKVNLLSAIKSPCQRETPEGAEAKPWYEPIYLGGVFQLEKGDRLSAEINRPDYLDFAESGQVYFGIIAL

A word on the Kd: it is the constant that tells how readily two partners part at equilibrium. Turning to scFv Ab3 RREF, the Kd in assay [1] amounted to 9.3 nM.

The EC50 (read off the curve) is the concentration at which the effect is half-maximal. Take scFv Ab3 (Adalimumab) of synthesis: in assay [1], the Kd is 4.3 nM and the RUmax came to 12 RU. Further, in assay [2], the EC50 (read off the curve) amounted to 0.09 µg/mL.
